Key:
[1] = target: HLA-DR (allotype and form not stated); experiment: not stated (Z. A. Nagy, unpublished)
[2] = target: HLA-DR on the human B-lymphoblastoid cell line LG-2 (human); experiment: cell-based or functional assay
[3] = target: HLA-DR antigen on the surface of HLA-DR positive cells (tumor cell lines other than PRIESS and LG-2, normal B cells, or cell line not stated) (human); experiment: cell-based or functional assay

Chain of murine anti-HLA-DR antibody L243 (VH): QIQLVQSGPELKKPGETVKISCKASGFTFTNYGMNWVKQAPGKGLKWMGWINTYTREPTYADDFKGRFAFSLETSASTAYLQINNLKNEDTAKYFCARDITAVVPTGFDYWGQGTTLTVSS
Chain of murine anti-HLA-DR antibody L243 (VL): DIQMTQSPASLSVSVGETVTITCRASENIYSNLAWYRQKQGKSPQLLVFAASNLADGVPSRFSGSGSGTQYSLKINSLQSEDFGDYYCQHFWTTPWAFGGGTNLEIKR

Kd [1]: 0.01 µM
Substance: murine anti-HLA-DR antibody L243
% killing of LG-2 cells, 200 nM, 4 h [2]: 79%
% killing of ARH-77 cells (DR 12), 200 nM, 4 h [3]: 88%
% killing of BJAB cells (DR 12, 13), 200 nM, 4 h [3]: 53%
% killing of BONNA-12 cells, 200 nM, 4 h [3]: 92%
% killing of DOHH-2 cells (DR 1, 2), 200 nM, 4 h [3]: 29%
% killing of EOL-1 cells, 200 nM, 4 h [3]: 22%
% killing of GRANTA-519 cells (DR 2, 11), 200 nM, 4 h [3]: 83%
% killing of HC-1 cells, 200 nM, 4 h [3]: 88%
% killing of HD-MY-Z cells, 200 nM, 4 h [3]: 35%
% killing of HDLM-2 cells, 200 nM, 4 h [3]: 77%
% killing of KARPAS-299 cells (DR 1, 2), 200 nM, 4 h [3]: 78%
% killing of KARPAS-422 cells (DR 2, 4), 200 nM, 4 h [3]: 25%
% killing of KM-H2 cells, 200 nM, 4 h [3]: 81%
% killing of L1236 cells, 200 nM, 4 h [3]: 52%
% killing of L-363 cells, 200 nM, 4 h [3]: 6%
% killing of L-428 cells (DR 12), 200 nM, 4 h [3]: 82%
% killing of LP-1 cells, 200 nM, 4 h [3]: 12%
% killing of MHH-CALL-4 cells (DR 1, 2), 200 nM, 4 h [3]: 35%
% killing of MHH-PREB-1 cells, 200 nM, 4 h [3]: 3%
% killing of MN-60 cells (DR 10, 13), 200 nM, 4 h [3]: 46%
% killing of NALM-1 cells (DR 1, 4), 200 nM, 4 h [3]: 44%
% killing of RAJI cells (DR 10, 17), 200 nM, 4 h [3]: 69%
% killing of RPMI-8226 cells, 200 nM, 4 h [3]: 6%
% killing of SR-786 cells (DR 1, 2), 200 nM, 4 h [3]: 3%
